Measured values from US9644017B2, “Insulin derivatives having an extremely delayed time-action profile” (Sanofi-Aventis Deutschland GmbH, priority 2008, dated 2017).

What was measured:
[1] = tested on: healthy male normoglycemic Wistar rats; test: Blood glucose-lowering effect of novel insulin analogues in rats; format: in vivo, rat; settings: 9 nmol/kg s.c., n=8, up to eight hours, FIG. 1
Procedure: The blood glucose-lowering effect of selected novel insulin analogues is tested in healthy male normoglycemic Wistar rats. Male rats receive subcutaneous injection of a dose of 9 nmol/kg of an insulin analogue. Blood samples are taken from the animals immediately before the injection of the insulin analogue and at regular intervals up to eight hours after the injection, and the blood glucose content therein is determined.

[2] = cited from earlier work

Substance | hypoglycemic effect / time-action profile in rats [1] | calculated pI ([2]; calculated) | experimentally determined pI ([2]; experimentally determined)
Gly (A21), Arg (B31), Arg (B32) human insulin [insulin glargine] | delayed action of insulin glargine cannot by contrast be unambiguously observed in rats | – | –
Arg (A0), Gly (A21), Arg (B31), Arg (B32) human insulin [Compound 18 from Kohn et al.] | – | 7.58 | 7.3
